According to US20230095004 (Aptitude Medical Systems, Inc., published 2023):
Where a chain is given by its changes, count along the chain named.

T1: VEGF-165 (VEGF-A) (Homo sapiens)
T1 chain: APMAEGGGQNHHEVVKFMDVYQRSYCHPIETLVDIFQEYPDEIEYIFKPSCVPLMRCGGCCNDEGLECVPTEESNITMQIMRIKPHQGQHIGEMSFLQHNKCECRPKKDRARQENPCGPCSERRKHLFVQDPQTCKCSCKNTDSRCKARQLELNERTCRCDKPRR

B1: AMSB107 (ssRNA)
RNA: UGCAUGCAUUUUACCAGUGAGUCGGAUCUCCGCAUAGAUAAGCCAACAAACGUACAUUCUCUGUUAGUAUUUUCUGCG
modifications: 2'-F all
B2: AMSB107.P40K (ssRNA)
RNA: B1 RNA
modifications: 2'-F all nucleotides; 5' 40 kDa PEG (SEQ 203 as printed in the description)
B3: AMS0433.0 (ssRNA)
RNA: ACCCUUGCUUGCGUAGCAUUUUACCAGUGAGUCGGAUCUC
modifications: 2'-F all nucleotides
B4: AMS0433 (ssRNA)
RNA: UGCAUGCAUUUUACCAGUGAGUCGGAUCUCCGCAUAUCUGCG
modifications: 2'-F all nucleotides
B5: AMS0433.7 (ssRNA)
RNA: CACAGAGAACUGUGUGCCAGUGAGUCGGAUCUCCGCAUAUCUGCG
modifications: 2'-F all
B6: AMS0433.17 (ssRNA)
RNA: UGCACUGCAUUUUACCAGUGAGUCGGAUCUCCGCAUAUCUGCG
modifications: 2'-F all
B7: AMS0433.8 (ssRNA)
RNA: CGUAGCAUUUUGCCAGUGAGUCGGAUCUCCGCAUAUCUGCG
modifications: 2'-F all
B8: AMS0433.11 (ssRNA)
RNA: CACAGAGAACUGUGCCUAGCAUUUUGCCAGUGAGUCGGAUCUCCGCAUAUCUGCG
modifications: 2'-F all
B9: AMS0433.13 (ssRNA)
RNA: UUUUGUGCUUGCGUAGCAACCCUCCAGUGAGUCGGAUCUCCGCAUAUCUGCG
modifications: 2'-F all
B10: AMS0433.10 (ssRNA)
RNA: UGCCAGUGAGUCGGAUCUCCUGUGAGAACACAG
modifications: 2'-F all
B11: AMS0433.1 (ssRNA)
RNA: ACCCUUGCUUGCGUAGCAUUUUACCAGUGAGUCGGAUCUCCGCAUAUCUGCG
modifications: 2'-F all
B12: AMS0433.4 (ssRNA)
RNA: B11 RNA with U14C, U21C, A23G
modifications: 2'-F all
B13: AMS0433.3 (ssRNA)
RNA: B11 RNA with U21C, A23G
modifications: 2'-F all
B14: AMS0433.21 (ssRNA)
RNA: GCUGUACAGCUUUUACCAGUGAGUCGGAUCUCCGCAUAUCUGCG
modifications: 2'-F all
B15: AMS0433.5 (ssRNA)
RNA: CACCAUGCUUGCGUAGCAUCAUCCAGUGAGUCGGAUCUCCGCAUAUCUGCG
modifications: 2'-F all
B16: AMS0433.0 (ssRNA)
RNA: B3 RNA
modifications: 2'-F all
B17: AMS0433.2 (ssRNA)
RNA: UGCCAGUGAGUCGGAUCUCCGCAUAUCUGCGCGCAUAUCUGCG
modifications: 2'-F all
B18: AMS0433.6 (ssRNA)
RNA: CCCCAUCUGCGAAGCAGUCAGCCAGUGAGUCGGAUCUCCGCAUAUCUGCG
modifications: 2'-F all
B19: AMS0433.18 (ssRNA)
RNA: UGCAUCUGCAUUUUACCAGUGAGUCGGAUCUCCGCAUAUCUGCG
modifications: 2'-F all
B20: AMS0433.19 (ssRNA)
RNA: CUGUACAGUUUUACCAGUGAGUCGGAUCUCCGCAUAUCUGCG
modifications: 2'-F all
B21: AMS0433.16 (ssRNA)
RNA: UUUUACCAGUGAGUCGGAUCUCUGCAUGCA
modifications: 2'-F all
B22: AMS0433.15 (ssRNA)
RNA: ACCCUUGCUUGCGUAGCAUUUUACCAGUGAGUCGGAUCUCUGCAUGCA
modifications: 2'-F all
B23: AMS0433.20 (ssRNA)
RNA: UUUUGCAUGCAUUUUACCAGUGAGUCGGAUCUCCGCAUAUCUGCG
modifications: 2'-F all
B24: AMSB107.6 (ssRNA)
RNA: UGCAUGCAACCAGUGAGUCGGAUCUCCGCAUAGAUAAGCCAACAAACGUACAUUCUCUGUUAGUAUUUUCUGCG
modifications: 2'-F all
B25: AMSB107.11 (ssRNA)
RNA: UGCAUGCAUUUUCCAGUGAGUCGGAUCUCCGCAUAGAUAAGCCAACAAACGUACAUUCUCUGUUAGUAUUUUCUGCG
modifications: 2'-F all
B26: AMSB107.2 (ssRNA)
RNA: UGCCAGUGAGUCGGAUCUCCACAGUAGAUAAGCCAACAAACGUACAUUCUCUGUUAGUAUUUUCCUGUG
modifications: 2'-F all
B27: AMSB107.20 (ssRNA)
RNA: B1 RNA
modifications: 2'-F with LNA (L) in stems as printed
B28: AMSB107.21 (ssRNA)
RNA: B1 RNA
modifications: 2'-F with 2'-OMe in stems as printed
B29: AMSB107.12 (ssRNA)
RNA: B1 RNA with U1C, G2U, C3G, A4U, U5A, G6C, C7A, A8G
modifications: 2'-F all
B30: AMSB107.18 (ssRNA)
RNA: B1 RNA
modifications: 2'-F with LNA (L) at positions as printed
B31: AMSB107.8 (ssRNA)
RNA: UUUUGCAUGCAUUUUACCAGUGAGUCGGAUCUCCGCAUAGAUAAGCCAACAAACGUACAUUCUCUGUUAGUAUUUUCUGCG
modifications: 2'-F all
B32: AMSB107.4 (ssRNA)
RNA: GCAUGCUUUUACCAGUGAGUCGGAUCUCCGCAUAGAUAAGCCAACAAACGUACAUUCUCUGUUAGUAUUUUCUGCG
modifications: 2'-F all
B33: AMSB107.9 (ssRNA)
RNA: B32 RNA with G1U, C2G, A3C, U4A, G5U, C6G, U7C, U8A
modifications: 2'-F all
B34: AMSB107.1 (ssRNA)
RNA: UGCCAGUGAGUCGGAUCUCCGCAUAGAUAAGCCAACAAACGUACAUUCUCUGUUAGUAUUUUCUGCG
modifications: 2'-F all
B35: AMSB107.5 (ssRNA)
RNA: AUGCAUGCAUUUUUACCAGUGAGUCGGAUCUCCGCAUAGAUAAGCCAACAAACGUACAUUCUCUGUUAGUAUUUUCUGCG
modifications: 2'-F all
B36: AMSB107.15 (ssRNA)
RNA: B35 RNA with A1U, U2G, G3C, C4A, A5U, U6C, G7U, C8G, A9C, U10A
modifications: 2'-F all
B37: AMSB107.17 (ssRNA)
RNA: B35 RNA with A1G, U2C, G3U, C4G, A5U, U6A, G7C, C8A, A9G, U10C
modifications: 2'-F all
B38: AMSB107.13 (ssRNA)
RNA: B35 RNA with A1C, U2C, C4G, A5U, U6A, G7C, A9G, U10G
modifications: 2'-F all
B39: AMSB107.10 (ssRNA)
RNA: B35 RNA with A1U, U2G, G3C, C4A, A5U, U6G, G7C, C8A, A9U
modifications: 2'-F all
B40: AMSB107.14 (ssRNA)
RNA: UGCACUGCAUUUUACCAGUGAGUCGGAUCUCCGCAUAGAUAAGCCAACAAACGUACAUUCUCUGUUAGUAUUUUCUGCG
modifications: 2'-F all
B41: AMS0433.m6 (ssRNA)
RNA: B4 RNA
modifications: mixed 2'-F and 2'-OMe: mUmGmCmAmUmGmCmAmUmUmUmUmAmCfCfAfGfUfGfAfGfUmCfGfGfAmUfCfUfCfCfGfCfAfUfAfUfCfUfGfCfG
B42: AMS0433.m4 (ssRNA)
RNA: B4 RNA
modifications: mixed 2'-F and 2'-OMe: fUfGfCfAfUfGfCfAmUmUmUmUmAmCfCfAfGfUfGfAfGfUmCfGfGfAmUfCfUfCmCmGmCmAmUmAmUmCmUmGmCmG

What follows are binders tested against T2, Angiopoietin-2 (Ang2) (Homo sapiens, UniProt O15123 O15123:19-496) (assay: competition; Ang2/Tie2 inhibition). Settings: tags: His tag; R&D Systems 623-AN.
T2 sequence (O15123 19-496, one chain of several): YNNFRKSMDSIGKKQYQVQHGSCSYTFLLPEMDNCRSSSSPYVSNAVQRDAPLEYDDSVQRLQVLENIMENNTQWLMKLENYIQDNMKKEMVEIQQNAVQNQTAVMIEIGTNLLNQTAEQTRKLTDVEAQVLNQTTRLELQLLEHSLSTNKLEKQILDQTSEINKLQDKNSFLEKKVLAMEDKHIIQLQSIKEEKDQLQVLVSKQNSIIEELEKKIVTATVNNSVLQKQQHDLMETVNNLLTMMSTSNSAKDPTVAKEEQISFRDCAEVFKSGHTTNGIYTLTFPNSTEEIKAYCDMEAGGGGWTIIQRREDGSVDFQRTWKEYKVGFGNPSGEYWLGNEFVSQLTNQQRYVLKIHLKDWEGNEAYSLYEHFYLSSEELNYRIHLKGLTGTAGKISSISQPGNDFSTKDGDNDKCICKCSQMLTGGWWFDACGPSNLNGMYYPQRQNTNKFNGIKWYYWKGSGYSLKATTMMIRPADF

| Binder | IC50 [nM] |
| --- | --- |
| B1 | ~0.1 |

The binders below were run against T2, Angiopoietin-2 (Ang2) (assay: competition; Ang2/Tie2 competition (column printed Tier2)). Settings: tags: His tag; R&D Systems 623-AN.

| Binder | IC50 [nM] |
| --- | --- |
| B2 | 0.045 |

Target: T1, VEGF-165 (VEGF-A)
Assay: flow; PBSMCT, 37 C
Settings: tags: recombinant; chain copies: 2; label: biotin

| Binder | Kd [nM] |
| --- | --- |
| B3 | 11.1 |
| B4 | 0.041 |

What follows are binders tested against T3, VEGF-121 (VEGF-A) (Homo sapiens, UniProt P15692 SEQ:1-121) (assay: flow; PBSMCT, 37 C). Settings: tags: recombinant; chain copies: 2; label: biotin.

| Binder | Kd [nM] |
| --- | --- |
| B4 | 0.052 |

What follows are binders tested against T3, VEGF-121 (VEGF-A) (assay: flow; bead-bound aptamer; PBSMCT 2.5 mM MgCl2 1 mM CaCl2, 37 C). Settings: tags: recombinant; chain copies: 2; label: biotin.

| Binder | Kd [nM] |
| --- | --- |
| B3 | 15.2 |

Target: T1, VEGF-165 (VEGF-A)
Assay: competition; VEGFR2 blocking ELISA, PBSMCT, 37 C
Settings: tags: R&D Systems 293-VE-050; chain copies: 2

| Binder | IC50 [nM] |
| --- | --- |
| B5 | 8.23 |
| B6 | 0.983 |
| B7 | 42.9 |
| B8 | 29.5 |
| B9 | 12.3 |
| B10 | 27.2 |
| B11 | 1.73 |
| B12 | 1.96 |
| B13 | 2.1 |
| B14 | 0.064 |
| B15 | 2.5 |
| B16 | 27.5 |
| B17 | 9.26 |
| B18 | 3.49 |
| B19 | 8.34 |
| B20 | 0.056 |
| B21 | 1.2 |
| B22 | 2.17 |
| B23 | 0.044 |

Target: T1, VEGF-165 (VEGF-A)
Assay: competition; VEGF receptor competition
Settings: tags: recombinant; chain copies: 2

| Binder | IC50 [nM] |
| --- | --- |
| B2 | 0.036 |

Target: T1, VEGF-165 (VEGF-A)
Assay: competition; VEGF/VEGFR2 inhibition
Settings: tags: R&D Systems 293-VE-050; chain copies: 2

| Binder | IC50 [nM] |
| --- | --- |
| B24 | 0.551 |
| B25 | 0.114 |
| B26 | 19.4 |
| B27 | 0.068 |
| B28 | 0.063 |
| B1 | 0.073 |
| B29 | 1.03 |
| B30 | 0.422 |
| B31 | 0.255 |
| B32 | 0.081 |
| B33 | 0.147 |
| B34 | 21.5 |
| B35 | 0.081 |
| B36 | 15.6 |
| B37 | 0.083 |
| B38 | 1 |
| B39 | 0.17 |
| B40 | 3.27 |

Target: T1, VEGF-165 (VEGF-A)
Assay: competition; VEGFR2 competition ELISA, 50 pM VEGF-165, 37 C
Settings: tags: recombinant; chain copies: 2

| Binder | IC50 [nM] |
| --- | --- |
| B41 | 0.041 |
| B42 | 0.04 |

Same assay, conditions: tags: recombinant; chain copies: 2; label: biotin

| Binder | IC50 [nM] |
| --- | --- |
| B4 | 0.037 |
